T1: Psf2-SpA (S. cerevisiae (endogenous in budding …, UniProt P40359 1-213))
T1 sequence (looked up): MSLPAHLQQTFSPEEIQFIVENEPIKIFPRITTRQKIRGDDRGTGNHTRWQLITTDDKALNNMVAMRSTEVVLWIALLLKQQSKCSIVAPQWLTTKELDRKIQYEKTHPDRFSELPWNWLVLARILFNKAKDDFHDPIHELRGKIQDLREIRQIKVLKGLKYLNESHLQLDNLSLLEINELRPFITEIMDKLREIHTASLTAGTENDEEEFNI

B1: Psf3 (natural protein, UniProt Q12146 1-194, looked up)
chain: MGYYDIDDVLADGTEFPCKFQYDIPGLGYLENNPGRPITKNTKLSLPLWLARILAIVGGDEALVDEEPVPFVELLPPDMFSTKVMNAIKTDPVALDLHSINSHFFSLAIKWIMLFSEKELANVVSELLLQRAQELNHHASSLSIDLNADSTGKNSANTNIATSTFLLKLEEMEKEIYKKSHESYKDTKRWMFKK
B2: Psf1 (natural protein, UniProt Q12488 1-208, looked up)
chain: MYGDLGNKLVLEAKRTKQLYARSNQDVNLPMYHEDIIRNILKEVSNLRKNTEYLKEQQQLGMLDDKVAKCQYFVTLLCMERNKRCLLAYQRLRTDILDSMAWNNNGLDLMSSITFSQQDTNNLSHQEQEYLKEYCDLITDLKSGDLVDIDLSGSLVPPSDVFIDVRVLKDAGEIQTEYGVFNLIKDSQFFVRQSDVERLIQQGYLQKI
B3: Sld5 (natural protein, UniProt Q03406 1-294, looked up)
chain: MDINIDDILAELDKETTAVDSTKITQGSSSTTHRDANTIVGSSLDLNDKTQIYVSPQQDFSDLMKSWKNERCSPELLPYPHQLMKRLLNRISMQSQLIENISMGFLDMQNASNANPPMPNESKLPLLCMETELERLKFVIRSYIRCRLSKIDKFSLYLRQLNEDENSLISLTDLLSKDEIKYHDTHSLIWLKLVNDSILKYMPEELQAINDTEGSVNMIDEPDWNKFVFIHVNGPPDGKWNEDPLLQENEFGKPCYTVTIPDLKEEVELTIGSIYVMRYEVIRDLLRDDKVALI
B4: Nup145C (natural protein, UniProt P49687 606-1317, looked up)
chain: SIWGLVNEEDAEIDEDDLSKQEDGGEQPLRKVRTLAQSKPSDKEVILKTDGTFGTLSGKDDSIVEEKAYEPDLSDADFEGIEASPKLDVSKDWVEQLILAGSSLRSVFATSKEFDGPCQNEIDLLFSECNDEIDNAKLIMKERRFTASYTFAKFSTGSMLLTKDIVGKSGVSIKRLPTELQRKFLFDDVYLDKEIEKVTIEARKSNPYPQISESSLLFKDALDYMEKTSSDYNLWKLSSILFDPVSYPYKTDNDQVKMALLKKERHCRLTSWIVSQIGPEIEEKIRNSSNEIEQIFLYLLLNDVVRASKLAIESKNGHLSVLISYLGSNDPRIRDLAELQLQKWSTGGCSIDKNISKIYKLLSGSPFEGLFSLKELESEFSWLCLLNLTLCYGQIDEYSLESLVQSHLDKFSLPYDDPIGVIFQLYAANENTEKLYKEVRQRTNALDVQFCWYLIQTLRFNGTRVFSKETSDEATFAFAAQLEFAQLHGHSLFVSCFLNDDKAAEDTIKRLVMREITLLRASTNDHILNRLKIPSQLIFNAQALKDRYEGNYLSEVQNLLLGSSYDLAEMAIVTSLGPRLLLSNNPVQNNELKTLREILNEFPDSERDKWSVSINVFEVYLKLVLDNVETQETIDSLISGMKIFYDQYKHCREVAACCNVMSQEIVSKILEKNNPSIGDSKAKLLELPLGQPEKAYLRGEFAQDLMKCTYKI
B5: Sec13 (natural protein, UniProt Q04491 1-297, looked up)
chain: MVVIANAHNELIHDAVLDYYGKRLATCSSDKTIKIFEVEGETHKLIDTLTGHEGPVWRVDWAHPKFGTILASCSYDGKVLIWKEENGRWSQIAVHAVHSASVNSVQWAPHEYGPLLLVASSDGKVSVVEFKENGTTSPIIIDAHAIGVNSASWAPATIEEDGEHNGTKESRKFVTGGADNLVKIWKYNSDAQTYVLESTLEGHSDWVRDVAWSPTVLLRSYLASVSQDRTCIIWTQDNEQGPWKKTLLKEEKFPDVLWRASWSLSGNVLALSGGDNKVTLWKENLEGKWEPAGEVHQ
B6: Nup85 (natural protein, UniProt P46673 1-744, looked up)
chain: MTIDDSNRLLMDVDQFDFLDDGTAQLSNNKTDEEEQLYKRDPVSGAILVPMTVNDQPIEKNGDKMPLKFKLGPLSYQNMAFITAKDKYKLYPVRIPRLDTSKEFSAYVSGLFEIYRDLGDDRVFNVPTIGVVNSNFAKEHNATVNLAMEAILNELEVFIGRVKDQDGRVNRFYELEESLTVLNCLRTMYFILDGQDVEENRSEFIESLLNWINRSDGEPDEEYIEQVFSVKDSTAGKKVFETQYFWKLLNQLVLRGLLSQAIGCIERSDLLPYLSDTCAVSFDAVSDSIELLKQYPKDSSSTFREWKNLVLKLSQAFGSSATDISGELRDYIEDFLLVIGGNQRKILQYSRTWYESFCGFLLYYIPSLELSAEYLQMSLEANVVDITNDWEQPCVDIISGKIHSILPVMESLDSCTAAFTAMICEAKGLIENIFEGEKNSDDYSNEDNEMLEDLFSYRNGMASYMLNSFAFELCSLGDKELWPVAIGLIALSATGTRSAKKMVIAELLPHYPFVTNDDIEWMLSICVEWRLPEIAKEIYTTLGNQMLSAHNIIESIANFSRAGKYELVKSYSWLLFEASCMEGQKLDDPVLNAIVSKNSPAEDDVIIPQDILDCVVTNSMRQTLAPYAVLSQFYELRDREDWGQALRLLLLLIEFPYLPKHYLVLLVAKFLYPIFLLDDKKLMDEDSVATVIEVIETKWDDADEKSSNLYETIIEADKSLPSSMATLLKNLRKKLNFKLCQAFM
B7: Nup120 (natural protein, UniProt P35729 1-1037, looked up)
chain: MACLSRIDANLLQYYEKPEPNNTVDLYVSNNSNNNGLKEGDKSISTPVPQPYGSEYSNCLLLSNSEYICYHFSSRSTLLTFYPLSDAYHGKTINIHLPNASMNQRYTLTIQEVEQQLLVNVILKDGSFLTLQLPLSFLFSSANTLNGEWFHLQNPYDFTVRVPHFLFYVSPQFSVVFLEDGGLLGLKKVDGVHYEPLLFNDNSYLKSLTRFFSRSSKSDYDSVISCKLFHERYLIVLTQNCHLKIWDLTSFTLIQDYDMVSQSDSDPSHFRKVEAVGEYLSLYNNTLVTLLPLENGLFQMGTLLVDSSGILTYTFQNNIPTNLSASAIWSIVDLVLTRPLELNVEASYLNLIVLWKSGTASKLQILNVNDESFKNYEWIESVNKSLVDLQSEHDLDIVTKTGDVERGFCNLKSRYGTQIFERAQQILSENKIIMAHNEDEEYLANLETILRDVKTAFNEASSITLYGDEIILVNCFQPYNHSLYKLNTTVENWFYNMHSETDGSELFKYLRTLNGFASTLSNDVLRSISKKFLDIITGELPDSMTTVEKFTDIFKNCLENQFEITNLKILFDELNSFDIPVVLNDLINNQMKPGIFWKKDFISAIKFDGFTSIISLESLHQLLSIHYRITLQVLLTFVLFDLDTEIFGQHISTLLDLHYKQFLLLNLYRQDKCLLAEVLLKDSSEFSFGVKFFNYGQLIAYIDSLNSNVYNASITENSFFMTFFRSYIIENTSHKNIRFFLENVECPFYLRHNEVQEFMFAMTLFSCGNFDQSYEIFQLHDYPEAINDKLPTFLEDLKSENYHGDSIWKDLLCTFTVPYRHSAFYYQLSLLFDRNNSQEFALKCISKSAEYSLKEIQIEELQDFKEKQHIHYLNLLIHFRMFEEVLDVLRLGHECLSDTVRTNFLQLLLQEDIYSRDFFSTLLRLCNAHSDNGELYLRTVDIKIVDSILSQNLRSGDWECFKKLYCFRMLNKSERAAAEVLYQYILMQADLDVIRKRKCYLMVINVLSSFDSAYDQWILNGSKVVTLTDLRDELRGL
B8: Seh1 (natural protein, UniProt P53011 1-349, looked up)
chain: MQPFDSGHDDLVHDVVYDFYGRHVATCSSDQHIKVFKLDKDTSNWELSDSWRAHDSSIVAIDWASPEYGRIIASASYDKTVKLWEEDPDQEECSGRRWNKLCTLNDSKGSLYSVKFAPAHLGLKLACLGNDGILRLYDALEPSDLRSWTLTSEMKVLSIPPANHLQSDFCLSWCPSRFSPEKLAVSALEQAIIYQRGKDGKLHVAAKLPGHKSLIRSISWAPSIGRWYQLIATGCKDGRIRIFKITEKLSPLASEESLTNSNMFDNSADVDMDAQGRSDSNTEEKAELQSNLQVELLSEHDDHNGEVWSVSWNLTGTILSSAGDDGKVRLWKATYSNEFKCMSVITAQQ

Each binder was assayed against T1, Psf2-SpA (assay: native MS).

Binder | stoichiometry N
B1 | 1
B2 | 1
B3 | 1

These binders were tested against Nup84-HRV-SpA (S. cerevisiae (endogenous in budding …, UniProt P52891 1-726)) (assay: native MS).
Chain of Nup84-HRV-SpA (S. cerevisiae (P52891 whole entry): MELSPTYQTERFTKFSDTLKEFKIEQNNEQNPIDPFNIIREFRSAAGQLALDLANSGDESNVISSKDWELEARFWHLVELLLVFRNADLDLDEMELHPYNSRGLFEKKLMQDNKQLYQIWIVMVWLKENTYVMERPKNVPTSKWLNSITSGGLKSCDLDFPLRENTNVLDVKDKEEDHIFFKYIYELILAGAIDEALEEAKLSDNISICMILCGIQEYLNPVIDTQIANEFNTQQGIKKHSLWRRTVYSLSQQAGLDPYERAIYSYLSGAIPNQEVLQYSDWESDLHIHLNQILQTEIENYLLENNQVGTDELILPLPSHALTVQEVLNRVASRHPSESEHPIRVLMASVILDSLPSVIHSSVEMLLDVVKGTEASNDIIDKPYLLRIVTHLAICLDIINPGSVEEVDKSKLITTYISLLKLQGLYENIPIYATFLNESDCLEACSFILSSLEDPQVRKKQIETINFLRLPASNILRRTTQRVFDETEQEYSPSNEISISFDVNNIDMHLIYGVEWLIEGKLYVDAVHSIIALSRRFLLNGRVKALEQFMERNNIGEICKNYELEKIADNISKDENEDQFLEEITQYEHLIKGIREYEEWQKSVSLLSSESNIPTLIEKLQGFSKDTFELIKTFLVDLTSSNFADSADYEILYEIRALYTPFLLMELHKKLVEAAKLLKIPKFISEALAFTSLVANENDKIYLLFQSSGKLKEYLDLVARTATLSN

Binder | stoichiometry N
B4 | 1
B5 | 1
B6 | 1
B7 | 1
B8 | 1

Source: PMC4790104 (Analytical chemistry, 2016)
